These results are taken from paper PMC10582422, “Alzheimer's Progenitor Amyloid‐β Targets and Dissolves Microbial Amyloids and Impairs Biofilm Function” (Advanced Science, 2023).

Data set [1] deals with T1, CsgA fibrils (Escherichia coli, UniProt P28307).
T1 construct: made in house; host or cells: E. coli
Format: biochemical, E. coli. As to the method:
(§1) The percentage secondary structure was calculated by the CD data via Dichroweb analysis with parameters of Contin/reference set 4.

Another data set can be described thus: Zeta potential. The conditions noted are these: Malvern Zetasizer Nano; fibrils. Format: physicochemical.
Data set [2] deals with T1, CsgA fibrils. Format: biochemical, E. coli. The conditions noted are these: DLS, incubated without Aβ, as for TEM; n = 3. Here is the method:
(§2) Quartz cells with low volume capacity (100 µL) were used and measurements were performed using a Malvern Zetasizer Nano Series running DTS software and using a 4 mW He−Ne laser operating at a wavelength of 633 nm and equipped with an avalanche photodiode (APD) detector. The scattered light was detected at an angle of 173°.

Another data set deals with Caco‐2 cells. In words: Cell adhesion of FapC and CsgA amyloids to Caco-2 cells. It counts as cell-based. The conditions noted are these: Alexa647-labelled, 10 µM, 24 h. Here is the method: In comparison, FapC or CsgA amyloids alone (10 µM), labelled with Alexa647, were incubated with the cells under the same conditions. […] The cells were incubated for additional 24 h. All the cells in this experiment were fixed in 4% PFA, washed with PBS and then subjected to confocal imaging as described above. The size and number of the FapC or CsgA amyloids attached to the membrane of Caco‐2 cells were quantified from the images using Fiji ImageJ software.

The next data set has as its system Aβ. The conditions noted are these: cited from earlier work. The source says: Amyloid‐β (Aβ) is a peptide generated from the proteolytic cleavage of amyloid precursor protein (APP) expressed on the membrane and synapses of neurons. Based on the combination of enzymes that cleave APP, i.e., α‐, β‐ or γ‐secretase, the resulting Aβ can be a 40 (Aβ40) or 42 (Aβ42) residue peptide that is intrinsically disordered in structure.^[ [1] ^] Different environmental factors, familial mutations or localized concentrations of Aβ can trigger the aggregation of Aβ into oligomers. The oligomers can subsequently assemble into long twisted fibrils characterized by a so‐called amyloid fold ...

The test system of another data set is E. coli K‐12. Description: Antimicrobial sensitivity assay (MBEC peg biofilm), K-12. Format: cell-based. The conditions noted are these: combined with Pen. Here is the method: (§3) Microbial culture of K12 and PAO1 were added to 96‐well plates at OD 0.3 and incubated overnight at the static condition at 37 °C with Minimum Biofilm Eradication Concentration (MBEC) peg lids (Innovotech, Edmonton, Canada) where biofilms were formed on the pegs. […] After overnight incubation in the challenge plate, peg lids were removed, and swabs of the culture were picked from the pegs and streaked onto LB agar plates. The plates were incubated overnight at 37 °C and surviving colonies were confirmed by visual inspection and counted with the software Promega Colony Counter.

The next data set concerns P. aeruginosa PAO1. Description: Antimicrobial sensitivity assay (MBEC peg biofilm), PAO1. It counts as cell-based. The conditions noted are these: combined with Pen. Here is the method:
as §3

Data set [3] deals with FapC fibrils. Description: TEM of FapC fibrils incubated with peptide. It counts as biochemical, P. aeruginosa. The conditions noted are these: TEM at 1, 2 and 3 weeks. An excerpt:
The samples were blotted with filter paper and grids were blotted twice with deionized water and then a drop of 1% uranyl acetate was placed on the grids for 30 s for negative staining. […] […] TEM grids were imaged with a Hitachi HT7700 TEM operating at 120 kV.

Data set [4] relates to FapC fibrils. Description: ThT assay: disintegration of preformed FapC fibrils. It counts as biochemical, P. aeruginosa. The conditions noted are these: 1.8 – 15 µM against 50 µM FapC; ThT 72 h. As to the method: FapC and CsgA fibrils were pre‐incubated with 50 µM of Thioflavin T dye for 3 h. […] The instrument was set to agitate the plate for 5 s before every reading. […]

In data set [5] the test system is FapC fibrils. Description: DLS size of FapC fibrils. The conditions noted are these: incubated without Aβ, as for TEM, n = 3. Format: biochemical, P. aeruginosa. As to the method:
as §2

For data set [6], the system named is FapC fibrils. Description: CD spectroscopy of FapC fibrils. It counts as biochemical, P. aeruginosa. Here is the method:
as §1

Another data set concerns FapC monomers. Description: Self-seeding / fibrillization of FapC monomers (ThT, TEM). It counts as biochemical, P. aeruginosa. The conditions noted are these: FapC monomers 15 µM.
Setting [7] is: CD, Dichroweb Contin/reference set 4, 50 µM.

T1 sequence (P28307 21-151): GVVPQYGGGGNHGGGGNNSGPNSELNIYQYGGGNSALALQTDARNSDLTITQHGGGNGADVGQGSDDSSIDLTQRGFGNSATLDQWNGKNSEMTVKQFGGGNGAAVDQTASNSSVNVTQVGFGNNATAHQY

“CsgA: CsgA prepared recombinantly in E. coli; major subunit of the curli protein”: the “CD negative peak, CsgA fibrils alone” value with CsgA fibrils [1] (50 µM CsgA without Aβ, 48 h) stood at 214 nm. For the same molecule, the “β‐sheet content of CsgA fibrils, without Aβ” value with CsgA fibrils [1] (setting [7]) is reported as 42%. In “Zeta potential”, this molecule displayed a zeta potential of 37 mV. For the same molecule, the “hydrodynamic radius of CsgA fibrils, without Aβ” value in the data set with CsgA fibrils [2] is given as “≈ 1500 nm”. Also, in the data set with Caco‐2 cells, the “size of amyloid aggregates attached to Caco-2 membrane, without Aβ” value is “≈ 30 µm”.

“Solanezumab: monoclonal antibody in clinical trials”: the “efficacy in phase 3 trials” value in the data set with Aβ (mild form of Alzheimer's disease, ref [6], [7]) is recorded as “some efficacy but not much promise in phase 3 trials”.

In the case of `[H]/N=C(/N)N[C@H]1[C@H](O)[C@@H](O)[C@H](O[C@@H]2O[C@@H](C)[C@](O)(C=O)[C@H]2O[C@@H]2O[C@@H](CO)[C@H](O)[C@@H](O)[C@@H]2NC)[C@@H](N/C(N)=N\[H])[C@@H]1O` [Strep], in the data set on E. coli K‐12, the “minimum concentration with slight antimicrobial effect (Strep), K-12” value came to 5e-06 µg/mL. Besides, in the data set on P. aeruginosa PAO1, the “minimum concentration with slight antimicrobial effect (Strep), PAO1” value came to 5e-06 µg/mL.

Take “IAPP: human islet amyloid polypeptide (KCNTATCATQRLANFLVHSSNNFGAILSSTNVGSNTY; Islet amyloid polypeptide; UniProt P10997 34-70, looked up)”: in the data set with FapC fibrils [3], the “TEM remodeling of FapC fibrils by IAPP or aSyn monomers” value is recorded as “no remodeling effect was observed for FapC fibrils”. The “disintegration of FapC amyloids by IAPP or aSyn” value in the data set with FapC fibrils [4] is “did not show any disintegration of FapC amyloids”.

B1: Lecanemab: humanized IgG1 monoclonal antibody that binds with soluble protofibrils of Aβ (antibody, chains of the INN, looked up, V domains shown)
VH: EVQLVESGGGLVQPGGSLRLSCSASGFTFSSFGMHWVRQAPGKGLEWVAYISSGSSTIYYGDTVKGRFTISRDNAKNSLFLQMSSLRAEDTAVYYCAREGGYYYGRSYYTMDYWGQGTTVTVSS
VL: DVVMTQSPLSLPVTPGAPASISCRSSQSIVHSNGNTYLEWYLQKPGQSPKLLIYKVSNRFSGVPDRFSGSGSGTDFTLRISRVEAEDVGIYYCFQGSHVPPTFGPGTKLEIK
Turning to B1, in the data set with Aβ (early onset Alzheimer's disease, ref [8]), the “efficacy in phase 2 clinical trials” value is “limited improvement in cognition and reduced Aβ burden”.

B2: FapC: FapC prepared recombinantly in E. coli; amyloid protein secreted by P. aeruginosa (protein, UniProt Q9I2F0 25-340, looked up)
Functional amyloid subunit …: GNEGGWHPPKPNPQSNNKGGATALVVDTQQNYNNKVSNFGTLNNASVSGSIKDASGNVGVNVAAGDNNQQANAAALASADASFVFGTATASTSVLQSGYGNTLNNYSNPNTASLSNSANNVSGNLGVNVAAGNFNQQKNDLAAAVSNGQYSTAGSAASQTSTGNTTVNSANYAYGGTYVSLKLNADGSYKGTSDQIGDVYLDTWEGQTHPGGSNTGHIDVDSQAQGAKDLNHDGGAFAFKEKGDVDLKGTVSGFIPAIVGFKTPVTNNASLSNSLQNVSGNVGVNIAAGGGNQQSNSLSIAAGCSSCPAGGESLGF
Regarding B2, in the data set on FapC fibrils [5], the “hydrodynamic radius of FapC fibrils, without Aβ” value is “≈ 550 nm”. Also, in the data set on FapC fibrils [6] (50 µM FapC without Aβ, 48 h), the “CD negative peak, FapC fibrils alone” value is reported as 214 nm. Also, in the data set with FapC fibrils [6] (setting [7]), the “random coil content of FapC fibrils, without Aβ” value stood at 22% and the “β‐sheet content of FapC fibrils, without Aβ” value came out at 47%. The zeta potential in “Zeta potential” came to 47 mV. The “size of amyloid aggregates attached to Caco-2 membrane, without Aβ” value in the data set on Caco‐2 cells is reported as “≈ 30 µm”.

B3: sonicated FapC: Sonicated FapC seeds used as control (protein, UniProt Q9I2F0 25-340, looked up)
Functional amyloid subunit …: B2 Functional amyloid subunit …
modifications: sonicated fibril seeds
notes: Sonicated FapC seeds used as control
As for B3, the “self-seeding of FapC monomers by sonicated seeds” value with FapC monomers was “a significant increase in ThT kinetics was observed”.
